This note sets out measurements from paper PMC4072508, “Genome-Wide Prediction and Validation of Peptides That Bind Human Prosurvival Bcl-2 Proteins” (PLoS Computational Biology, 2014).

Assay [1] has as its target Bcl-xL, Q07817. The experiment in a line: peptide SPOT array, c-Myc-tagged receptor at 1 uM or 100 nM, anti-c-Myc-Cy3.
The target in assay [2] is T1, Mcl-1, Q07820.
T1 chain: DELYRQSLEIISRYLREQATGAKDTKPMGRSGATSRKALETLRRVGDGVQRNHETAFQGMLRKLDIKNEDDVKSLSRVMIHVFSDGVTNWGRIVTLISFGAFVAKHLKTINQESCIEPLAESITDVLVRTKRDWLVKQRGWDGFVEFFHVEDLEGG
The description is as above.

Bcl-xL, Q07817, sequence (Q07817 1-209): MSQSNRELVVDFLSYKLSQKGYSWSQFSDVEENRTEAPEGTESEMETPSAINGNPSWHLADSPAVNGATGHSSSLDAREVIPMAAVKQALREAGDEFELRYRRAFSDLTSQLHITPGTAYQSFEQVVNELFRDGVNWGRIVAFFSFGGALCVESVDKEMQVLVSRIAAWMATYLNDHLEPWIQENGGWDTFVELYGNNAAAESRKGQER

Consider ISDVQVFGYSLRFNADLLRSAVQQVN [DBC1], for which the SPOT signal as a fraction of Bim BH3's signal on the same receptor and array in assay [1] and in assay [2] was 0.02 each time.

With CDLLGAKGKDILYILDHIFGDILKSK [NT5C2], the SPOT signal as a fraction of Bim BH3's signal on the same receptor and array in assay [1] and in assay [2] was 0.06 in each case.

As to DLSAVTLSREDQAMAEQLAENYHNTW [RYR1], the SPOT signal as a fraction of Bim BH3's signal on the same receptor and array in assay [1] and in assay [2] was 0.02 throughout.

As to NKTMTQLSSTLARCAKDILGFAVMFF [PKD2L1], the SPOT signal as a fraction of Bim BH3's signal on the same receptor and array was 0.15 in assay [1] and 0.11 in assay [2].

Consider HPRKESQVRQDAWVGDGVWVSIRLDS [SPAG9], for which the SPOT signal as a fraction of Bim BH3's signal on the same receptor and array in assay [1] and in assay [2] was 0.02 each time.

In the case of RDPQGWVAGNLSARGDGAAGFTLPGF [MST1R], the SPOT signal as a fraction of Bim BH3's signal on the same receptor and array in assay [1] and in assay [2] was 0.02 throughout.

GKPETCTGQDLADLGDRLRDWFQLLH: the SPOT signal as a fraction of Bim BH3's signal on the same receptor and array in assay [1] amounted to 0.02; in assay [2] it was 0.01.

On to SRQPRDFGDSDARGGKGFLRGVVGGV [VPS13C], for which the figures for the SPOT signal as a fraction of Bim BH3's signal on the same receptor and array in assay [1] and in assay [2] were 0.48 and 0.17, respectively.

PPDAHVLGKADEAAGQDFSLDLRSTG [CIITA]: the SPOT signal as a fraction of Bim BH3's signal on the same receptor and array in assay [1] and in assay [2] was 0.01 throughout.

Turning to SHALICISHWILGILDRHLNNFMVAM [PRKDC], the SPOT signal as a fraction of Bim BH3's signal on the same receptor and array is 0.03 in assay [1] and 0.02 in assay [2].

Consider RHFVIRRGQVLREIAEEYGGVMVSFP [HDLBP], for which the SPOT signal as a fraction of Bim BH3's signal on the same receptor and array in assay [1] stood at 0.05; in assay [2], 0.04.

Consider LNAVNYISTVLADWLDNVFFLQLQQA, for which the SPOT signal as a fraction of Bim BH3's signal on the same receptor and array in assay [1] is 0.02; in assay [2], 0.03.

In the case of DEHISYVATKDCHLGDQLEGVNTPRQ [EXOC5], the SPOT signal as a fraction of Bim BH3's signal on the same receptor and array came to 0.02 in assay [1] and 0.01 in assay [2].

Regarding CALLGSTGERDCLAGDSAGGNLCFTV [LIPE], the SPOT signal as a fraction of Bim BH3's signal on the same receptor and array in assay [1] and in assay [2] was 0.01 in each case.

Take GKPETCTGQDLADLLDRLRDWFQLLH: the SPOT signal as a fraction of Bim BH3's signal on the same receptor and array in assay [1] is 0.02; in assay [2], 0.01.

Regarding QRLINLVGESLRLLGNTFVALSDLRC [BAT3], the SPOT signal as a fraction of Bim BH3's signal on the same receptor and array in assay [1] is 0.05; in assay [2], 0.03.

LNAVNYISTVDADWADNVFFLQLQQA: the SPOT signal as a fraction of Bim BH3's signal on the same receptor and array in assay [1] is 0.02; in assay [2] it was 0.03.

In the case of SKFVILSAHKLVFIGDTLTRQVTAQD [NEDD9], the SPOT signal as a fraction of Bim BH3's signal on the same receptor and array in assay [1] was 0.05; in assay [2] it was 0.04.

For the molecule IGFFIAFGIAMGKMGDQAKLMVDFFN [SLC1A2], the SPOT signal as a fraction of Bim BH3's signal on the same receptor and array in assay [1] and in assay [2] was 0.02 each time.

For the molecule TLHFNQRGTWLASGSDDLKVVVWDWV [DCAF8], the SPOT signal as a fraction of Bim BH3's signal on the same receptor and array in assay [1] and in assay [2] was 0.02 in each case.

In the case of RGAMLSLATGLAHSGSDLSLLVPEIE [FAM115A], the values for the SPOT signal as a fraction of Bim BH3's signal on the same receptor and array in assay [1] and in assay [2] were 0.09 and 0.06, respectively.

In the case of SVRYYPSGDADASGSDDATCRLYDLR [GNB5], the SPOT signal as a fraction of Bim BH3's signal on the same receptor and array in assay [1] and in assay [2] was 0.01 in each case.

Take QLSKPGAALYLQSILEGFKEAVQYVL [SOS1]: the SPOT signal as a fraction of Bim BH3's signal on the same receptor and array in assay [1] and in assay [2] was 0.03 each time.

As for KNIAGALAFWDANASELLNFIKQDRD [MLLT4], the SPOT signal as a fraction of Bim BH3's signal on the same receptor and array in assay [1] and in assay [2] was 0.02 throughout.

For AFTEREASEIMKSILEAIQYLHSINI [MAPKAPK2], the SPOT signal as a fraction of Bim BH3's signal on the same receptor and array in assay [1] was determined as 0.02; in assay [2] it was 0.01.

In the case of VLSRIEAGRSLKSVADEFGISKSTFY [TIGD7_3eA], the SPOT signal as a fraction of Bim BH3's signal on the same receptor and array in assay [1] stood at 0.95; in assay [2] it was 0.02.

Regarding LGLGELAGLTVANEADSLTYDIANNK [STRN], the SPOT signal as a fraction of Bim BH3's signal on the same receptor and array stood at 0.02 in assay [1] and 0.01 in assay [2].

For the molecule VDFYQPTCIVDQCGADSLGCDRLGCF [HDAC3], the SPOT signal as a fraction of Bim BH3's signal on the same receptor and array in assay [1] and in assay [2] was 0.01 throughout.
